# Publication PMC4189797, “Mycoplasma synoviae enolase is a plasminogen/fibronectin binding protein” (BMC Veterinary Research, 2014)
# Tested on: O=C(O)[C@@H](CO)OP(=O)(O)O
# Test: purified protein
# Conditions: 100 mM HEPES, 7.7 mM KCl, 10 mM MgCl2, pH 7.5, 30°C, 2-PGA 0.5, 1.5 and 2.0 mM
substance,measurement,value
rMsEno (recombinant M. synoviae enolase) (Mycoplasmopsis synoviae 53),Km,1100 µM
